# Laboratory results taken from paper PMC7215387, “Comparison of Target Recognition by TRAF1 and TRAF2” (International Journal of Molecular Sciences, 2020).
# B1: TRADD-N: N-terminal domain of TRADD (TRADD-N, amino acid residues 1-163) (protein)
# chain: MAAGQNGHEEWVGSAYLFVESSLDKVVLSDAYAHPQQKVAVYRALQAALAESGGSPDVLQMLKIHRSDPQLIVQLRFCGRQPCGRFLRAYREGALRAALQRSLAAALAQHSVPLQLELRAGAERLDALLADEERCLSCILAQQPDRLRDEELAELEDALRNLK
# modifications: left off: His6 (from the vector pET24a), C-terminal, state not stated
# Columns and labels:
# TRAF2 = target: T1, TRAF2 (Homo sapiens, UniProt Q12933); assay: Surface plasmon resonance (SPR), TRAF2; type: binding; details: TRAF2 versus TRAF1
# T1 construct: TRAF2 TRAF domain (amino acid residues 305-501); 6xHis (C); made in house; host or cells: E. coli BL21 (DE3)
# T1 sequence (Q12933 305-501): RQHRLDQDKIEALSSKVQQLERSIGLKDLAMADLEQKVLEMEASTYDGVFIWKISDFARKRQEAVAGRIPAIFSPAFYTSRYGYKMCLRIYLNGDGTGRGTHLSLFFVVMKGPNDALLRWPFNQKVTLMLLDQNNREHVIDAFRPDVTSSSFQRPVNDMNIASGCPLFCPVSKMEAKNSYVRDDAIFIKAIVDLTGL
# Procedure: (§1) The binding affinities between TRADD-N and TRAF1 or TRAF2 were further quantitatively analyzed using surface plasmon resonance (SPR) experiments (Figure 3a,b). For the SPR experiment, each purified 6xHis-tagged TRAF1 and TRAF2 was coupled to Ni-NTA sensor chips using a His-tag affinity system. Different concentrations of TRADD-N protein, from 0.39 to 3.125 μM, were analyzed for binding to TRAF1 or TRAF2. […] Given their interaction patterns and affinity differences in complex formation, we modeled the structure of the TRAF1:TRADD-N complex by docking TRADD-N to a previously solved TRAF1 structure based on the TRAF2:TRADD-N complex to better understand the affinity differences (Figure 3c,d). According to the previously determined structure of the TRAF2:TRADD-N complex, two distinct binding regions, Region I and II, were identified (Figure 3e). The specific residues from TRAF2 that contributed to the interaction in Region I were T401, H406, L471, and P474. The interaction-contributing residues on TRAF2 in Region II were D445, R448, P449, D450, S454 and G468. All residues in TRAF2 that participated in the interaction with TRADD-N were conserved in TRAF1, except for S454, which was replaced by alanine in TRAF1 (Figure 3f). The side chain of S454 in TRAF2 formed a stable hydrogen bond with the side chain of Q143 on TRADD-N and contributed to the stable interaction between these two proteins. […]
# TRAF2 S454A mutant = assay: Isothermal titration calorimetry (ITC), TRAF2 S454A mutant; type: binding; details: Supplementary Figure S1
# Procedure: as §1, with “3f).” for “3f). The side chain of S454 in TRAF2 formed a stable hydrogen bond with the side chain of Q143 on TRADD-N and contributed to the stable interaction between these two proteins.”
# A NanoITC (TA Instruments) was used for isothermal titration calorimetry experiments. […] Binding isotherms were analyzed by using the software provided by TA Instruments. […]
molecule,measurement,setting,value
B1,affinity of TRAF2 for TRADD-N relative to that of TRAF1,TRAF2,four times higher
same,Kd,TRAF2 S454A mutant,~55 nM
